US20250003976A1, “ANTIBODIES TARGETING PHOSPHORYLATED SEVEN-TRANSMEMBRANE RECEPTORS” (7TM ANTIBODIES GMBH, priority 2021, published 2025)

Experiments:
[1] = target: hemagglutinin (HA)-tagged mouse µ-opioid receptor (MOP), phosphorylated after DAMGO stimulation (mouse) (UniProt P42866); assay: 7TM phosphorylation assay: HA-MOP of DAMGO-treated cells on anti-HA magnetic beads
[2] = target: hemagglutinin (HA)-tagged mouse µ-opioid receptor (MOP), not phosphorylated (mouse) (UniProt P42866); assay: 7TM phosphorylation assay: HA-MOP of untreated cells on anti-HA magnetic beads
Chain of hemagglutinin (HA)-tagged mouse µ-opioid receptor (MOP), not phosphorylated (mouse) (P42866 whole entry): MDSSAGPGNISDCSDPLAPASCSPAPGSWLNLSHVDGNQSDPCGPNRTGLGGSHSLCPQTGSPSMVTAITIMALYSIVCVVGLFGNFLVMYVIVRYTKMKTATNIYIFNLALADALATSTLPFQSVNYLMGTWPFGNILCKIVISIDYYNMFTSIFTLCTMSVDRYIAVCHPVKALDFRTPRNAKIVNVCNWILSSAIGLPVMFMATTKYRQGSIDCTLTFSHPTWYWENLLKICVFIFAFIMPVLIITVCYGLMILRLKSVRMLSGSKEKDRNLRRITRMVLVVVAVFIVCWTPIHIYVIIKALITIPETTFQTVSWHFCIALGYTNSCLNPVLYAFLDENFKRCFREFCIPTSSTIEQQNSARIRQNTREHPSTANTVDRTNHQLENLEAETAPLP

μ-opioid receptor (MOP) = μ-opioid receptor (MOP) (Mus musculus, UniProt P42866)
Chain of μ-opioid receptor (MOP) (P42866 whole entry): as above

MOP [3] = target: T1, MOP (Mus musculus, UniProt P42866); conditions: 60 min of agonist exposure
T1 sequence (P42866 whole entry): as above

MOP [4] = target: T1, MOP; conditions: 60 min of agonist exposure; remark: listed apart in the source
[5] = target: hemagglutinin (HA)-tagged mouse µ-opioid receptor (MOP), not phosphorylated (mouse) (UniProt P42866); assay: saturation binding of [3H]DAMGO to membranes of HA-MOP-transfected HEK293 cells
[6] = target: hemagglutinin (HA)-tagged mouse µ-opioid receptor (MOP), phosphorylated after DAMGO stimulation (mouse) (UniProt P42866); assay: 7TM phosphorylation assay: HA-MOP on anti-HA magnetic beads, rabbit primary antibody, enzyme-labeled secondary antibody

Compound: anti-np-MOP antibody (7TM0319N)
- optical density (OD) read at 405 nm [1]: 0.8 OD at 405 nm
- optical density (OD) read at 405 nm [2]: 0.8 OD at 405 nm

Compound: C[C@@H](NC(=O)[C@@H](N)Cc1ccc(O)cc1)C(=O)NCC(=O)N(C)[C@@H](Cc1ccccc1)C(=O)NCCO [DAMGO, [D-Ala2,N-MePhe4,Gly-ol]-enkephalin]
- extent of MOP phosphorylation resulting from GRK2/3 recruitment (μ-opioid receptor (MOP)): full phosphorylation
- β-arrestin1 and β-arrestin2 recruitment (MOP [3]): virtually identical to those of DAMGO-induced MOP phosphorylation
- recruitment of GRK2 and GRK3 to MOP (MOP [4]): high efficiency

Compound: [D-Ala2,N-MePhe4,Gly-ol]-enkephalin (DAMGO) (peptide)
- functional MOPs per cell (saturation binding) (MOPs per cell) [5]: 300000

Compound: anti-pS375-MOP antibody (7TM0319C)
- optical density (OD) read at 405 nm [6]: 1.2 OD at 405 nm
- optical density (OD) read at 405 nm [2]: 0.2 OD at 405 nm

Compound: CCCCCCCCCCCCCC(=O)O[C@@H]1[C@@H](C)[C@@]2(O)[C@@H](C=C(CO)C[C@]3(O)C(=O)C(C)=C[C@@H]23)[C@@H]2C(C)(C)[C@]12OC(C)=O [PMA, phorbol 12-myristate 13-acetate]
- T370 phosphorylation of MOP (heterologous, PKC activation) (μ-opioid receptor (MOP)): potent and selective phosphorylation of T370
